Laboratory results reported in paper doi:10.1101/2024.05.27.596032 (bioRxiv, 2024).
Values joined by “and” are separate entries in the source; they are usually repeats but may differ in a detail not shown here. Equal entries are not always repeated. Where two headings read alike, the source gives them in different places.

What was measured:
Assay in all cases: SEC
[1] = target: Listeria monocytogenes NrdR (Listeria monocytogenes serotype 1/2a str, S10403S) (UniProt B8DHI6)
[2] = target: Listeria monocytogenes NrdR (Listeria monocytogenes serotype 1/2a str, S10403S) (UniProt B8DHI6); remark: listed apart in the source
[3] = target: Listeria monocytogenes NrdR (Listeria monocytogenes serotype 1/2a str, S10403S) (UniProt B8DHI6); remark: listed apart in the source
[4] = target: Listeria monocytogenes NrdR (Listeria monocytogenes serotype 1/2a str, S10403S) (UniProt B8DHI6); remark: listed apart in the source
[5] = target: Listeria monocytogenes NrdR (Listeria monocytogenes serotype 1/2a str, S10403S) (UniProt B8DHI6); remark: listed apart in the source
[6] = target: Listeria monocytogenes NrdR (Listeria monocytogenes serotype 1/2a str, S10403S) (UniProt B8DHI6); remark: listed apart in the source
[7] = target: the molecule itself

Row | Molecule | stoichiometry N [1] | stoichiometry N [2] | stoichiometry N [3] | stoichiometry N [4] | stoichiometry N [5] | stoichiometry N [6] | stoichiometry N [7]
1 | Listeria monocytogenes NrdR (from UniProt B8DHI6 1-154) (natural protein) | 4 | 8 | 4 | 4 | 4 | 2 | 
2 | Streptococcus pneumoniae NrdR (natural protein, Streptococcus pneumoniae TIGR4, UniProt P67318 1-157, looked up) MRCPKCGATKSSVIDSRQAEEGNTIRRRRECDECQHRFTTYERVEERTLVVVKKDGTREQFSRDKIFNGIIRSAQKRPVSSDEINMVVNRIEQKLRGRNENEIQSEDIGSLVMEELAELDEITYVRFASVYRSFKDVSELESLLQQITQSSKKKKER |  |  |  |  |  |  | 2 and 4
